Test results: US20080182978A1, “ANTI-NGF ANTIBODIES AND METHODS USING SAME” (RINAT NEUROSCIENCE CORP, priority 2002, published 2008)

Tested on: moderate to severe pain from osteoarthritis of the knee
Test: Clinical study, osteoarthritis of the knee: index knee pain VAS, PID/SPID
Format: in vivo, human
Excerpt: Adult males and females (ages between 35 to 65) who were experiencing moderate-to-severe pain from osteoarthritis of the knee, but were in otherwise overall good health were enrolled in the study. During the screening period, patients were required to discontinue arthritis medications such as NSAIDs, cyclooxygenase type-2 (COX-2) inhibitors, and opiates at least 14 days prior to administration of anti-NGF antibody E3. Patients were allowed to use rescue medications of acetaminophen or ibuprofen with some restrictions based on laboratory findings or past medical history. Some patients took rescue medications during the study, but rescue medications were not consumed for 2 days before and after administration of anti-NGF antibody E3. Thirty-four patients were admitted to the study and assessed as inpatients for on Study Days -1, 1 and 2. Anti-NGF antibody E3 administration occurred on the morning of Day 1. Electronic diaries were used to record index knee pain and rescue medication usage in clinic and at home. Ten patients were treated with placebo. Twenty-four patients were treated with anti-NGF antibody E3: four patients per dose level for 3 μg/kg (cohort 1), 10 μg/kg (cohort 2), and 30 μg/kg (cohort 3); and six patients per dose level for 100 μg/kg (cohort 4) and 300 μg/kg (cohort 5). The placebo used was sterile 0.9% Sodium Chloride Injection, USP (normal saline). Anti-NGF antibody E3 was a frozen liquid formulation consisting of 10 mg/ml antibody in an aqueous solution of 10 mM histidine, 275 mM sucrose, 0.01% polysorbate 20, pH 6.0. One hour prior to IV administration, frozen antibody was thawed and diluted into Sodium Chloride Injection, USP. The volume for each patient was calculated based on the subject's Day -1 weight and assigned dose level, ranging from 3-6 cc for cohort 1, 10-20 cc for cohort 2, 30-60 cc for cohort 3, and 100 cc for cohort 4 and cohort 5. For cohorts 1 and 2, antibody E3 was administered by a slow IV bolus over 3 to 5 minutes, followed with an IV flush of 5 cc Sodium Chloride Injection, USP. For cohorts 3-5, antibody E3 was administered at 100 cc/hour via infusion pump, followed with an IV flush of 5 cc Sodium Chloride Injection, USP and discontinuation of the IV. Within each cohort, the placebo (Sodium Chloride Injection, USP) was administered by slow bolus or continuous infusion in the same fashion as the antibody E3. After two in-patient days, patients were discharged home. […] Periodic safety assessments was performed for 181 days in all patients. Analgesic effects were assessed before dosing and at multiple times after administration of antibody E3. […] Patients were cued 4 times daily and instructed to indicate the level of arthritis pain in the index knee at that moment. […] VAS for index knee pain during walking was completed daily, concurrent with the fourth current index knee pain VAS. Electronic diary for data collection was issued on day -8 and a 7-day screening assessment of electronic diary compliance was performed from day -8 to day -2 to determine success in using the electronic diaries for a given subject. Subjects were instructed to complete 4 diaries per day. The mean VAS recorded during the screening period is used as baseline for assessment of efficacy. Outcome was assessed as change from baseline (pain level during screening period), expressed as pain intensity difference (PID) or summed pain intensity difference (SPID) for different dose levels. Changes from baseline in the activity measurements were analyzed using an analysis of covariance (ANCOVA) model with treatment as the main factor and baseline pain as a covariate. For means and mean changes, comparisons of antibody E3 with placebo was made using Dunnett'[…] was used to assess the dose-response relationship.

B1: E3: humanized, affinity matured anti-NGF antagonist antibody; variable regions SEQ ID NO:1 and 2; human IgG2a (A330P331 to S330S331), kappa (antibody, V domains shown)
VH: QVQLQESGPGLVKPSETLSLTCTVSGFSLIGYDLNWIRQPPGKGLEWIGIIWGDGTTDYNSAVKSRVTISKDTSKNQFSLKLSSVTAADTAVYYCARGGYWYATSYYFDYWGQGTLVTVS
VL: DIQMTQSPSSLSASVGDRVTITCRASQSISNNLNWYQQKPGKAPKLLIYYTSRFHSGVPSRFSGSGSGTDFTFTISSLQPEDIATYYCQQEHTLPYTFGQGTKLEIKRT
modifications: human IgG2a constant (A330S/P331S) and kappa constant missing
- Summed pain intensity differences (SPID) as compared to baseline (All E3 doses, Days 2-8): −713
- Summed pain intensity differences (SPID) as compared to baseline (All E3 doses, Days 2-14): −1269
- Summed pain intensity differences (SPID) as compared to baseline (All E3 doses, Days 2-21): −1752
- Summed pain intensity differences (SPID) as compared to baseline (All E3 doses, Days 2-28): −2254
- Summed pain intensity differences (SPID) as compared to baseline (E3 3 μg/kg single administration, Days 2-8): −572
- Summed pain intensity differences (SPID) as compared to baseline (E3 3 μg/kg single administration, Days 2-14): −956
- Summed pain intensity differences (SPID) as compared to baseline (E3 3 μg/kg single administration, Days 2-21): −1048
- Summed pain intensity differences (SPID) as compared to baseline (E3 3 μg/kg single administration, Days 2-28): −1067
- Summed pain intensity differences (SPID) as compared to baseline (E3 10 μg/kg single administration, Days 2-8): −671
- Summed pain intensity differences (SPID) as compared to baseline (E3 10 μg/kg single administration, Days 2-14): −1174
- Summed pain intensity differences (SPID) as compared to baseline (E3 10 μg/kg single administration, Days 2-21): −1623
- Summed pain intensity differences (SPID) as compared to baseline (E3 10 μg/kg single administration, Days 2-28): −2020
- Summed pain intensity differences (SPID) as compared to baseline (E3 30 μg/kg single administration, Days 2-8): −733
- Summed pain intensity differences (SPID) as compared to baseline (E3 30 μg/kg single administration, Days 2-14): −1371
- Summed pain intensity differences (SPID) as compared to baseline (E3 30 μg/kg single administration, Days 2-21): −2042
- Summed pain intensity differences (SPID) as compared to baseline (E3 30 μg/kg single administration, Days 2-28): −2566
- Summed pain intensity differences (SPID) as compared to baseline (E3 100 μg/kg single administration, Days 2-8): −766
- Summed pain intensity differences (SPID) as compared to baseline (E3 100 μg/kg single administration, Days 2-14): −1403
- Summed pain intensity differences (SPID) as compared to baseline (E3 100 μg/kg single administration, Days 2-21): −1996
- Summed pain intensity differences (SPID) as compared to baseline (E3 100 μg/kg single administration, Days 2-28): −2726
- Summed pain intensity differences (SPID) as compared to baseline (E3 300 μg/kg single administration, Days 2-8): −769
- Summed pain intensity differences (SPID) as compared to baseline (E3 300 μg/kg single administration, Days 2-14): −1340
- Summed pain intensity differences (SPID) as compared to baseline (E3 300 μg/kg single administration, Days 2-21): −1869
- Summed pain intensity differences (SPID) as compared to baseline (E3 300 μg/kg single administration, Days 2-28): −2521
- summed pain intensity differences (SPID) vs baseline, ANCOVA (single administration, p<0.05): pain reduction was statistically significant
- mean daily pain intensity (VAS) vs baseline (single i.v. dose 3, 10, 30, 100 or 300 μg/kg, every dose tested): decrease of mean daily pain intensity
- duration of pain intensity reduction / pain relief (single i.v. dose of 100 μg/kg): at least 80 days
